B1: CLPTM1 (parent)
chain: LGCYAVYSLLYLEHKGWYSWVLSM
B2: CIB1 (parent)
chain: DLSRLVNCLTGEGEDTRLSASEMK

Variants of: B1
Assay: protein stability index of a GFP-peptide fusion (GPS, HEK-293T) (PSI 1-6); higher = more stable
Conditions: c terminus: a fixed tail appended
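Further: lentivirally expressed fusions sorted by FACS into six bins by GFP to DsRed ratio, PSI derived from sequencing read proportions per bin multiplied by bin number.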

Row | Variant | protein stability index
1 | W17T | 3.28
2 | W17Y | 2.38
3 | V21G | 2.62
4 | V21N | 3.02
5 | V21M | 2.45
6 | V21A | 2.45
7 | V21T | 2.31
8 | V21L | 2.77
9 | V21H | 2.45
10 | V21I | 1.96
11 | V21R | 1.99
12 | V21E | 3.46
13 | V21F | 2.12
14 | V21S | 3.6
15 | V21W | 3.42
16 | V21D | 1.56
17 | V21P | 3.65
18 | V21C | 4.16
19 | V21K | 2.12
20 | V21Y | 2.63
21 | Y18M | 2.61
22 | Y18F | 2.61
23 | Y18P | 3.5
24 | Y18L | 2.48

Row | Variant | protein stability index
25 | Y18K | 2.08
26 | Y18C | 1.27
27 | Y18D | 3.53
28 | Y18R | 3.76
29 | Y18Q | 2.56
30 | Y18I | 3.27
31 | Y18G | 2.21
32 | Y18N | 3.45
33 | Y18V | 2.95
34 | Y18W | 3.03
35 | Y18H | 2.44
36 | L22Q | 2.18
37 | L22E | 3.17
38 | L22F | 3.46
39 | L22M | 2.11
40 | L22K | 2.01
41 | L22G | 1.72
42 | L22S | 3.49
43 | L22W | 2.58
44 | L22P | 3.42
45 | L22T | 1.98
46 | L22C | 4.24
47 | L22Y | 3.5
48 | L22I | 3.34

Row | Variant | protein stability index
49 | L22R | 2.45
50 | L22A | 3.33
51 | S19Y | 2.62
52 | S19T | 3.99
53 | S19I | 3.66
54 | S19Q | 3.63
55 | S19G | 2.71
56 | S19K | 3.27
57 | S19W | 2.66
58 | S19P | 2.93
59 | S19E | 2.27
60 | S19C | 3.08
61 | S19R | 1.76
62 | S19V | 1.92
63 | S19N | 3.88
64 | S19A | 4.22
65 | S19F | 2.47
66 | M24F | 4.41
67 | M24Q | 3.62
68 | M24K | 3.6
69 | M24S | 2.46
70 | M24G | 4.14
71 | M24Y | 2.41
72 | M24C | 4.42

Row | Variant | protein stability index
73 | M24E | 5.08
74 | M24V | 3.57
75 | M24A | 2.39
76 | M24L | 2.6
77 | M24R | 2.3
78 | M24T | 2.61
79 | M24W | 3.77
80 | M24N | 2.39
81 | M24P | 3.83
82 | M24D | 2.05
83 | M24H | 3.76
84 | M24I | 2.67
85 | W20M | 3.21
86 | W20G | 2.21
87 | W20K | 2.65
88 | W20V | 3.55
89 | W20D | 2.14
90 | W20R | 2.84
91 | W20S | 2.21
92 | W20L | 2.91
93 | W20C | 3.98
94 | W20T | 2.45
95 | W20E | 3.54
96 | W20I | 3.33

Row | Variant | protein stability index
97 | W20Q | 2.07
98 | W20N | 3.58
99 | W20F | 1.72
100 | W20H | 1.87
101 | W20P | 3.37
102 | S23N | 2.27
103 | S23M | 3.15
104 | S23P | 4.18
105 | S23T | 1.72
106 | S23Q | 3.11
107 | S23V | 1.82
108 | S23F | 2.11
109 | S23C | 3.78
110 | S23G | 2.17
111 | S23Y | 2.49
112 | S23I | 3.17
113 | S23W | 3.03
114 | S23R | 2.26
115 | S23H | 2.63
116 | S23L | 2.41

Variants of: B2
Assay: as above
Conditions: c terminus: a fixed tail appended

Row | Variant | protein stability index
117 | D1Y | 2.43
118 | D1R | 3.68
119 | D1C | 2.65
120 | D1I | 2.3
121 | D1V | 1.95
122 | D1T | 2.06
123 | D1A | 2.84
124 | D1K | 4.18
125 | D1M | 2.49
126 | D1F | 2.77
127 | D1G | 3.69
128 | D1N | 2.89
129 | D1Q | 3.56
130 | D1S | 2.8
131 | D1P | 4.33
132 | D1H | 3.25
133 | D1L | 2.04
134 | L2M | 5.13
135 | L2P | 5.35
136 | L2N | 4.22
137 | L2G | 5.22
138 | L2Y | 3.82
139 | L2D | 4.32
140 | L2E | 5.67
141 | L2A | 4.39
142 | L2C | 3.87

Row | Variant | protein stability index
143 | L2W | 2.89
144 | L2I | 2.82
145 | L2K | 4.56
146 | L2Q | 4.6
147 | L2F | 3.85
148 | L2H | 5.29
149 | L2S | 5
150 | S3E | 2.78
151 | S3N | 2.39
152 | S3M | 3.1
153 | S3G | 3.72
154 | S3Y | 2.79
155 | S3R | 2.43
156 | S3K | 3.27
157 | S3C | 2.98
158 | S3F | 2.9
159 | S3T | 2.32
160 | S3Q | 2.84
161 | S3W | 1.38
162 | S3L | 2.2
163 | S3I | 1.2
164 | R4F | 3.88
165 | R4E | 3.68
166 | R4A | 3.8
167 | R4C | 3.65

From the supplement of paper PMC10567573
